From PMC10870823 (mBio, 2023)

Target: T1, SARS-CoV-2 (Wuhan / WA-1) Spike RBD-mouse IgG2a Fc fusion protein (SARS-CoV-2, UniProt P0DTC2)
T1 construct: source: recombinant, purified
Experiment: BLI
Conditions: both partners purified

B1: FG-10A3 (Family G clone 10A3) human anti-SARS-CoV-2 Spike RBD monoclonal antibody (antibody, V domains shown)
VH: QVQLVESGGGVVQPGRSLRLSCAASGFTFSSYGMNWVRQAPGKGLEWVAIIWYDGNNTYYVDSVKGRFTISRDNSKNTLYLQMNSLRAEDTAVYYCARKDGSKTYYGYYFDYWGQGTLVTVSS
VL: DIQMTQSPSSLSASVGDRVTITCRASQSIHSFLNWYQQKPGKPPNLLIYAASSLQSGLPSRFSGSGSGTDFTLTISSLQPEDFATYYCQQSYITPPTFGHGTKVEIK
notes: also called Family G (FG)-10A3
  Kd: 0.125 nM
